Test system: activated recombinant MAP kinase
Test: Phosphorylation of GFP Erk sensors by MAP kinase, ^32P incorporation
Type: biochemical
Settings: 10 μM substrate, 100 ng MAP kinase, 30 minutes at 30° C.; mean ± standard deviation of triplicates
Description: Experiments were terminated and samples processed as described previously in subsection D.4. Results presented in Table X represent means of triplicate determinations ±standard deviations of ^32P-incorporation in washed pellets as described earlier.

B1: Myelin Basic Protein: a well-characterized substrate of Erk kinase (protein, UniProt P02687 1-169, looked up)
Myelin basic protein: AAQKRPSQRSKYLASASTMDHARHGFLPRHRDTGILDSLGRFFGSDRGAPKRGSGKDGHHAARTTHYGSLPQKAQGHRPQDENPVVHFFKNIVTPRTPPPSQGKGRGLSLSRFSWGAEGQKPGFGYGGRASDYKSAHKGLKGHDAQGTLSKIFKLGGRDSRSGSPMARR
^32P-Incorporation (CPM): 33361 ± 477 CPM

Source: US20080166749A1, “Fluorescent Protein Sensors of Post-Translational Modifications” (INVITROGEN CORPORATION, priority 1998, published 2008)
